According to patent publication US20250332297A1, “DLL3-SPECIFIC BINDING CONSTRUCTS AND THEIR USE IN RADIOTHERAPY” (MOLECULAR PARTNERS AG, priority 2024, published 2025):

T1: Human DLL3-ECD (Homo sapiens, UniProt Q9NYJ7)
T1 construct: the extracellular domain of DLL3 (DLL3-ECD) from human, cynomolgus monkey, mouse and pig
T1 sequence (Q9NYJ7 27-492 limits assumed): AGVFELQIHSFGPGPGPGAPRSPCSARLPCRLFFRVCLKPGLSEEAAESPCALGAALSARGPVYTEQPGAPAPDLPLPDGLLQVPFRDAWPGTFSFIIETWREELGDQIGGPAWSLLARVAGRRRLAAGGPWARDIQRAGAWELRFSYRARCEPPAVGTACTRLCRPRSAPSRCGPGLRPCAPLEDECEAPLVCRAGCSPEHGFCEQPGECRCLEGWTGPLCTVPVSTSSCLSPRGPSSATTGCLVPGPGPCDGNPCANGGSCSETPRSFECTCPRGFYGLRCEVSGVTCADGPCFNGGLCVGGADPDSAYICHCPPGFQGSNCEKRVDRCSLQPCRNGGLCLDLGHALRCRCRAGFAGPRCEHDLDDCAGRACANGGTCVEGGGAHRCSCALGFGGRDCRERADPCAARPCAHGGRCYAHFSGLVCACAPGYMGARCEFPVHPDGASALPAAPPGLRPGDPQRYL

T2: mouse DLL3-ECD (Mus musculus, UniProt O88516)
T2 construct: the extracellular domain of DLL3 (DLL3-ECD) from human, cynomolgus monkey, mouse and pig
T2 sequence (O88516 33-490 limits assumed): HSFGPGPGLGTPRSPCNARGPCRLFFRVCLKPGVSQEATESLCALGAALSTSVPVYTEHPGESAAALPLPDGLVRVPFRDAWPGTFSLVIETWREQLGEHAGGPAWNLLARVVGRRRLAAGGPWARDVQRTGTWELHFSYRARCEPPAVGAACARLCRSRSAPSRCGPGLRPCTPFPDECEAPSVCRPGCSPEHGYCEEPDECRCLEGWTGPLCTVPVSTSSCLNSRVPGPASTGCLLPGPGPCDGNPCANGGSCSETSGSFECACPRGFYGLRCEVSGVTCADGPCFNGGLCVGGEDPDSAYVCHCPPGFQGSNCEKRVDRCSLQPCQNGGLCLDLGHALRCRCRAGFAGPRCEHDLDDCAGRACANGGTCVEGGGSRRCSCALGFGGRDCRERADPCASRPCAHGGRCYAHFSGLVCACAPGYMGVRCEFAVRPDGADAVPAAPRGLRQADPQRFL

T3: Cyno DLL3-ECD (extracellular domain of cynomolgus macaque DLL3, residues 27 to 466, Avi-tag, 3C site, Fc knob … (cynomolgus macaque, UniProt A0A2K5WSR1 27-464, biotinylated at the Avi-tag (Example 11)))
T3 construct: range 27-466; also called cyno ECD; cynomolgus monkey DLL3; not shown: Avi-tag, 3C protease recognition site and Fc knob into hole
T3 sequence: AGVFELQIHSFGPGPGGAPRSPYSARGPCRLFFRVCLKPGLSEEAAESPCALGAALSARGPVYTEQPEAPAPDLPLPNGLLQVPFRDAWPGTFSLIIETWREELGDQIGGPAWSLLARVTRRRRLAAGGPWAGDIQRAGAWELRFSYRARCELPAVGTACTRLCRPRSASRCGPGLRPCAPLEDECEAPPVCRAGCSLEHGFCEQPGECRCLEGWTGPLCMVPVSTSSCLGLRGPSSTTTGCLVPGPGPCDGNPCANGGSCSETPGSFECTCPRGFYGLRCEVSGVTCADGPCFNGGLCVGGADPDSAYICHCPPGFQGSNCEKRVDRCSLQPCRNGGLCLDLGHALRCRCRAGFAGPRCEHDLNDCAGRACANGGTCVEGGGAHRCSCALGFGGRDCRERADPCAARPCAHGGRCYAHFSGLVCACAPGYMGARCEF

T4: Human DLL3-ECD (recombinant extracellular domain of human DLL3, Examples 11, 17 and 19) (human, UniProt Q9NYJ7 27-466, biotinylated at the Avi-tag where immobilised (Examples 11 and 19))
T4 construct: also called hDLL3-ECD; human ECD; not shown: Avi-tag and Fc knob into hole (order depends on the format)
T4 sequence: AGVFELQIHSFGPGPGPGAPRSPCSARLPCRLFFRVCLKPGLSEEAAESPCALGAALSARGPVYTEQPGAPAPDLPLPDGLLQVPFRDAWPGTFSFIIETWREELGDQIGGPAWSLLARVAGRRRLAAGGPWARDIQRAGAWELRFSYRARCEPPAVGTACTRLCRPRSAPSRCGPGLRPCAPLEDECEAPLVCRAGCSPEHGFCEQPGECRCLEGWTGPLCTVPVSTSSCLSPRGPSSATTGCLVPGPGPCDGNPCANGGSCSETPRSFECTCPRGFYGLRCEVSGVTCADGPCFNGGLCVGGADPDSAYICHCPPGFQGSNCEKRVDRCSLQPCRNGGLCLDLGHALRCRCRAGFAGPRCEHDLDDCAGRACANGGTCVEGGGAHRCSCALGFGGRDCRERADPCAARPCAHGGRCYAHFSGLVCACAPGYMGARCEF

T5: mouse DLL3-ECD (recombinant extracellular domain of mouse DLL3) (mouse, UniProt O88516 33-490)
T5 construct: extracellular domain
T5 sequence (looked up): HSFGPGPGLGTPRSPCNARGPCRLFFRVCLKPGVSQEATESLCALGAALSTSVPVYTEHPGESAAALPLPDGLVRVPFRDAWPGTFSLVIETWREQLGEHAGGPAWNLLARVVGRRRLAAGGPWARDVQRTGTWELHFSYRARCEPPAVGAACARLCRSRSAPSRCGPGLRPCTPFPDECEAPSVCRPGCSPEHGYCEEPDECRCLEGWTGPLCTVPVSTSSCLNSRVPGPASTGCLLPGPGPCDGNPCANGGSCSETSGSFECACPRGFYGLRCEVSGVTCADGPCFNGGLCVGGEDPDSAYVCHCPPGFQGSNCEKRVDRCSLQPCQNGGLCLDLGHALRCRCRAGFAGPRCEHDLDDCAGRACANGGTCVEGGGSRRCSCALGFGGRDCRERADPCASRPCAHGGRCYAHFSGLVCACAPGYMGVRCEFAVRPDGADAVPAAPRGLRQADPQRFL


Tests used:
Human DLL3-ECD = molecular target: T1, Human DLL3-ECD; experiment: SPR, immobilized DARPin, binding of human DLL3-ECD (Example 17); conditions: immobilized biotinylated DARPin, DLL3-ECD as analyte, 1:1 Langmuir, Table 19
Method: (§1) Kinetic binding parameters and binding affinities of two domain (2D) ankyrin repeat protein MAM279 and single domain (1 D) ankyrin repeat protein MAM093 to DLL3 from different species were determined. The DLL3-specific ankyrin repeat domain of MAM093 is identical to the DLL3-specific ankyrin repeat domain comprised in MAM279.
(§2) SPR multi-trace analyses were performed similarly as described in Examples 1 and 11. Here, the binding kinetics of immobilized DARPin proteins to the extracellular domain of DLL3 (DLL3-ECD) from human, cynomolgus monkey, mouse and pig were determined. Various concentrations of recombinant DLL3-ECD starting from 500 nM were applied to immobilized biotinylated 2D DARPin (MAM279; SEQ ID NO: 11) or 1 D DARPin (MAM093; SEQ ID NO: 1) (both with a Glycine-Serine (GS) at the N-terminal end) for on-rate and off-rate measurements.
(§3) Streptavidin SAHC200M (Xantec) SPR chip was conditioned according to the manufacturer's protocol. Biotinylated DARPins were immobilized to a coating density of 27 resonance units (RU) for 1D DARPin and 25 RU for 2D DARPin. All analytes (3-fold dilution ranging from 500-6.17 nM) were injected in succession for 240 s and dissociation was recorded for 10800 s using a constant flow of 100 μl/min.

Cyno DLL3-ECD = experiment: SPR, immobilized DARPin, binding of cyno DLL3-ECD (Example 17); set-up: species or system cynomolgus monkey; conditions: immobilized biotinylated DARPin, DLL3-ECD as analyte, 1:1 Langmuir, Table 19
Method: as §1, §2, §3

mouse DLL3-ECD = molecular target: T2, mouse DLL3-ECD; experiment: SPR, immobilized DARPin, binding of mouse DLL3-ECD (Example 17); conditions: immobilized biotinylated DARPin, DLL3-ECD as analyte, 1:1 Langmuir, Table 20
Method: as §1, §2, §3

pig DLL3-ECD = experiment: SPR, immobilized DARPin, binding of pig DLL3-ECD (Example 17); conditions: immobilized biotinylated DARPin, DLL3-ECD as analyte, 1:1 Langmuir, Table 20
Method: as §1, §2, §3

[1] = molecular target: pig DLL3-ECD (recombinant extracellular domain of pig DLL3) (pig); experiment: SPR (ProteOn), biotinylated DARPin on chip, pig DLL3-ECD as analyte, 1:1 Langmuir fit
[2] = molecular target: T3, Cyno DLL3-ECD (extracellular domain of …); experiment: SPR (ProteOn), biotinylated DARPin on chip, cyno DLL3-ECD as analyte, 1:1 Langmuir fit
Method: (§4) SPR multi-trace analyses were performed similarly as described in Examples 1 and 11. Here, the binding kinetics of immobilized DARPin proteins to the extracellular domain of DLL3 (DLL3-ECD) from human, cynomolgus monkey, mouse and pig were determined.
(§5) Streptavidin SAHC200M (Xantec) SPR chip was conditioned according to the manufacturer's protocol.

[3] = molecular target: T4, Human DLL3-ECD (recombinant …); experiment: SPR (ProteOn), biotinylated DARPin on chip, human DLL3-ECD as analyte, 1:1 Langmuir fit
Method: as §4, §5

[4] = molecular target: T5, mouse DLL3-ECD (recombinant …); experiment: SPR (ProteOn), biotinylated DARPin on chip, mouse DLL3-ECD as analyte, 1:1 Langmuir fit
Method: as §4, §5

Kd [1]	koff [1]	kon [1]	Kd [2]	koff [2]	kon [2]	Kd [3]	koff [3]	kon [3]	Kd [4]	koff [4]	kon [4]	Molecule	other results
												MAM093: Ankyrin repeat domain specific for DLL3 (SEQ ID NO: 1); single domain (1D) DARPin (protein, Ankyrin repeat domain specific for DLL3 (MAM093), single domain (1D) DARPin) DLGKKLLAAAAQGQDDEVRELLKAGANVNAKDLFGYTPLHLAAWRGHLEIVEVLLKAGADVNAKDAAGETPLHLAAWFGHLEIVEVLLKAGADVNAQDLQGKTPADLAAKEGHEDIAEVLQKAA	Kd (Human DLL3-ECD): 0.13 nM; Koff Human DLL3-ECD (Human DLL3-ECD): 1.18e-05 s⁻¹; Kon Human DLL3-ECD (Human DLL3-ECD): 90700 M⁻¹ s⁻¹; Kd (Cyno DLL3-ECD): 8.72 nM; Koff Cyno DLL3-ECD (Cyno DLL3-ECD): 0.000825 s⁻¹; Kon Cyno DLL3-ECD (Cyno DLL3-ECD): 94700 M⁻¹ s⁻¹; Kd (mouse DLL3-ECD): 149 nM; Koff mouse DLL3-ECD (mouse DLL3-ECD): 0.004 s⁻¹; Kon mouse DLL3-ECD (mouse DLL3-ECD): 26700 M⁻¹ s⁻¹; Kd (pig DLL3-ECD): 14.3 nM; Koff pig DLL3-ECD (pig DLL3-ECD): 0.00033 s⁻¹; Kon pig DLL3-ECD (pig DLL3-ECD): 23100 M⁻¹ s⁻¹
17.3 nM	0.000319 s⁻¹	18400 M⁻¹ s⁻¹	8.88 nM	0.000939 s⁻¹	106000 M⁻¹ s⁻¹	0.127 nM	1.31e-05 s⁻¹	102000 M⁻¹ s⁻¹	83.9 nM	0.00282 s⁻¹	33700 M⁻¹ s⁻¹	Biotinylated 2D DARPin MAM279 (SEQ ID NO: 11) with a Glycine-Serine (GS) at the N-terminal end (designed binder, biotinylated (site and any tag used not stated), also called Biotinylated DARPin MAM279) GSDLGKKLLEAARAGQDDEVRELLKAGADVNAKDYFSHTPLHLAARNGHLKIVEVLLKAGADVNAKDFAGKTPLHLAADAGHLEIVEVLLKAGADVNAQDIFGKTPADIAADAGHEDIAEVLQKAAGSPTPTPTTPTPTPTTPTPTPTGSDLGKKLLAAAAQGQDDEVRELLKAGANVNAKDLFGYTPLHLAAWRGHLEIVEVLLKAGADVNAKDAAGETPLHLAAWFGHLEIVEVLLKAGADVNAQDLQGKTPADLAAKEGHEDIAEVLQKAA	
14.3 nM	0.00033 s⁻¹	23100 M⁻¹ s⁻¹	8.72 nM	0.000825 s⁻¹	94700 M⁻¹ s⁻¹	0.13 nM	1.18e-05 s⁻¹	90700 M⁻¹ s⁻¹	149 nM	0.004 s⁻¹	26700 M⁻¹ s⁻¹	Biotinylated 1D DARPin MAM093 (SEQ ID NO: 1) with a Glycine-Serine (GS) at the N-terminal end (designed binder, biotinylated (site and any tag used not stated), also called Biotinylated DARPin MAM093) GSDLGKKLLAAAAQGQDDEVRELLKAGANVNAKDLFGYTPLHLAAWRGHLEIVEVLLKAGADVNAKDAAGETPLHLAAWFGHLEIVEVLLKAGADVNAQDLQGKTPADLAAKEGHEDIAEVLQKAA	
